# Laboratory results: paper PMC4870115 (Biochemistry, 2016)
# Target: the molecule itself
# Test: crystal structure
protein,measurement,value
ToxA of Burkholderia glumae (enzyme) MSTTARYDSIGGLFEDFTQSAAQRAIEVRTIFHMIGDVSGKSVLDLACGFGFFGREIYRRGAAKVVGVDISEKMIELAREESRKYGDPLEFHVRDVANMEPLGQFDLVNAAWLFNYADSVENLRKMFKVVRASLKPDGKLVAYTVDPDFSLAKGNFAKYGVNVLNERAWGPGYRHDAEFVTDPPSQFSFYRWSRADYESAIADAGFSHFEWQKPLLEADDIATHPPGFWDVFQNNCLQTGLVCKP,stoichiometry N,4
